B1: NODD peptide, HIF-1α 395-414 (F413Y) (peptide)
peptide: DALTLLAPAAGDTIISLDYG
B2: CODD peptide, HIF-1α 556-574 (M561A, M568A) (peptide)
peptide: DLDLEALAPYIPADDDFQL

Biological target: HIF prolyl-4-hydroxylase 2 (PHD2), residues 178-426 (human, UniProt Q9GZT9 178-426)
Test: cell-based or functional assay

Sequence of HIF prolyl-4-hydroxylase 2 (PHD2), residues 178-426 (Q9GZT9 178-426): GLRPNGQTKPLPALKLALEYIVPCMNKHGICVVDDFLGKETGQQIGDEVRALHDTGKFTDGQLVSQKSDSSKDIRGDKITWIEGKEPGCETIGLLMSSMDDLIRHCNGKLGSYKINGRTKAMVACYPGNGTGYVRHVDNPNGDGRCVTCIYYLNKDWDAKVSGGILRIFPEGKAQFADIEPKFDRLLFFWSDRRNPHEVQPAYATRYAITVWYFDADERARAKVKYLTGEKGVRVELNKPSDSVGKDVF

Binder | kcat/KM of NODD hydroxylation by PHD2 (steady-state, MALDI-TOF), 0 NaCl [M⁻¹ s⁻¹] | kcat/KM of NODD hydroxylation by PHD2 (steady-state, MALDI-TOF), + 100 mM NaCl [M⁻¹ s⁻¹] | kcat/KM of CODD hydroxylation by PHD2 (steady-state, MALDI-TOF), 0 mM NaCl [M⁻¹ s⁻¹] | kcat/KM of CODD hydroxylation by PHD2 (steady-state, MALDI-TOF), + 100 mM NaCl [M⁻¹ s⁻¹]
B1 | 667 | 833 | – | –
B2 | – | – | 16700 | 5000

Reference: PMC4046702 (Journal of inorganic biochemistry, 2013)
